Measurements taken from the supplement of paper PMC10567573.

B1: PWWP2B (parent)
chain: TIRLRPRQVLCEKCKSTLSPPEAS
B2: ZNF232 (parent)
chain: FPKSEQVYLHFLSVVTEDGPEPKD

Variants of: B1
Experiment: protein stability index of a GFP-peptide fusion (GPS, HEK-293T) (PSI 1-6); higher = more stable
Conditions: c terminus: a fixed tail appended
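Also: lentivirally expressed fusions sorted by FACS into six bins by GFP to DsRed ratio, PSI derived from sequencing read proportions per bin multiplied by bin number.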

Protein stability index: each site, then its substitutions
K15: Y 2.73
S16: A 3.08 | C 2.98 | D 2.78 | E 3.65 | F 2.18 | G 3.07 | H 2.76 | I 2.66 | K 3.09 | L 2.59 | M 2.94 | N 3.34 | P 2.73 | Q 3.35 | R 3.2 | T 2.92 | V 2.61 | W 1.96 | Y 2.27
T17: A 3.33 | C 2.5 | D 3.19 | E 3.97 | F 2.56 | G 2.82 | H 2.76 | I 2.88 | K 2.62 | L 3 | M 2.77 | N 2.76 | P 3.44 | Q 2.78 | R 2.77 | S 2.96 | V 2.48 | W 1.89 | Y 2.18
L18: A 2.86 | C 3.15 | D 3.78 | E 3.92 | F 2.89 | G 3.7 | H 3.85 | I 3.03 | K 3.11 | M 3.94 | N 3.63 | P 3.94 | Q 3.05 | R 2.49 | S 2.87 | T 3.08 | V 3.18 | W 1.96 | Y 2.83
S19: A 3.02 | C 2.99 | D 3.68 | E 3.32 | F 2.83 | G 2.29 | H 2.68 | I 3.35 | K 2.56 | L 2.72 | M 2.74 | N 3.25 | P 3.16 | Q 3.01 | R 2.59 | T 2.37 | V 3.18 | W 1.84 | Y 2.94
P20: A 2.79 | C 2.87 | D 3.5 | E 3.22 | F 2.26 | G 3.29 | H 2.24 | I 2.44 | K 2.66 | L 2.41 | M 2.55 | N 2.63 | Q 3.03 | R 2.65 | S 2.79 | T 2.76 | V 2.9 | W 2.45 | Y 2.42
P21: A 3.29 | C 2.72 | D 3.89 | E 3.63 | F 2.56 | G 2.78 | H 2.79 | I 2.67 | K 3.21 | L 2.08 | M 2.73 | N 2.95 | Q 2.98 | R 2.72 | S 3.5 | T 2.69 | V 2.95 | W 2.35 | Y 2.42
E22: A 2.66 | C 2.42 | D 3.41 | F 2.02 | G 2.18 | H 2.34 | I 2.09 | K 2.62 | L 2.85 | M 2.4 | N 2.46 | P 2.69 | Q 2.58 | R 2.32 | S 2.81 | T 3.15 | V 3.18 | W 1.94 | Y 2.31
A23: C 3.15 | D 3.54 | E 3.49 | F 2.43 | G 2.87 | H 2.83 | I 2.61 | K 3.02 | L 2.47 | M 3.01 | N 3.12 | P 3.3 | Q 3.94 | R 2.73 | S 2.75 | T 2.99 | V 2.91 | W 1.96 | Y 2.47
S24: A 2.64 | C 2.99 | D 3.44 | E 3.28 | F 2.36 | G 2.6 | H 2.63 | I 2.78 | K 2.7 | L 2.66 | M 1.97 | N 2.98 | P 2.9 | Q 3.09 | R 3.02 | T 3.25 | V 2.62 | W 1.93 | Y 2.89

Variants of: B2
Experiment: as above
Conditions: c terminus: a fixed tail appended

Protein stability index, by site and new letter:
F1: A 4.31 | C 4.31 | D 4.86 | E 4.82 | G 3.98 | H 3.88 | I 3.73 | K 4.44 | L 3.95 | M 4.15 | N 4.29 | P 4.28 | Q 4.75 | R 3.89 | S 3.69 | T 4.05 | V 3.92 | W 3 | Y 2.01
P2: A 1.91 | C 2.75 | D 3.92 | E 4.04 | F 2.37 | G 2.78 | H 1.54 | I 2.72 | K 2.91 | L 2.29 | M 2.28 | N 2.8 | Q 2.14 | T 2.68 | V 2.26 | W 2.44 | Y 2.89
K3: A 2.85 | C 2.51 | D 2.35 | E 3.36 | F 2.61 | G 3.07 | H 2.09 | I 2.23 | L 3.27 | M 2.69 | N 2.71 | P 2.46 | Q 2.12 | S 2.7 | T 2.75 | V 2.33 | W 1.95 | Y 2.02
S4: A 1.77 | C 1.74 | D 2.24 | E 2.95 | F 2.49 | G 1.66 | H 2.26 | I 2.58 | K 1.89 | L 1.78 | M 2.35 | N 3.06 | P 1.95 | Q 2.29 | R 1.66 | T 2.34 | V 1.61 | W 2.14 | Y 3.17
E5: A 2.29 | C 1.65 | D 2.84 | F 2.35 | G 1.61 | H 2.31 | I 2.23 | K 3.34 | L 2.47 | M 2.04 | P 1.75 | Q 1.9 | S 1.7 | T 1.59 | V 2.58 | W 2.02 | Y 1.19
Q6: A 2.3 | C 2.19 | D 2.87 | E 2.6 | F 1.9 | H 1.88 | I 2.23 | K 1.86 | L 2.18 | M 1.6 | N 2.07 | P 1.92 | R 1.85 | S 1.41 | T 2.37 | V 1.21 | Y 1.47
V7: A 2.2 | C 1.63 | D 1.91 | E 2.8 | F 1.68 | H 1.61 | I 1.97 | K 3.21 | L 2.32 | M 3.74 | N 2.27 | P 2.97 | Q 1.88 | R 2.49 | S 2.59 | T 2.1 | Y 1.02
Y8: A 2.46 | C 2.49 | D 3.55 | E 3.09 | F 1.88 | G 2.15 | H 2.31 | I 2.27 | L 2.14 | N 2.01 | P 3.14 | Q 3.33 | T 2.13 | V 1.98 | W 2.2
L9: E 3.54 | F 1.73 | H 2.53 | I 1.83 | K 2.5 | M 1.29 | P 2.58 | Q 2.78 | R 2.11 | S 2.32 | T 2.62 | V 1.71 | W 1.71 | Y 2.53
H10: A 3.29 | C 2.81 | D 3.04 | E 3.46 | G 2.24 | I 1.26 | K 2.73 | M 2.65 | P 1.94
